# Data reported in patent US9127260B2.
# Experiments:
# [1] = molecular target: T1, synthetic phytase Fus5#2 (mature) (synthetic fusion of Hafnia sp. LU11047 phytase and Yersinia mollaretii ATCC 43969 phytase fragments)
# T1 sequence: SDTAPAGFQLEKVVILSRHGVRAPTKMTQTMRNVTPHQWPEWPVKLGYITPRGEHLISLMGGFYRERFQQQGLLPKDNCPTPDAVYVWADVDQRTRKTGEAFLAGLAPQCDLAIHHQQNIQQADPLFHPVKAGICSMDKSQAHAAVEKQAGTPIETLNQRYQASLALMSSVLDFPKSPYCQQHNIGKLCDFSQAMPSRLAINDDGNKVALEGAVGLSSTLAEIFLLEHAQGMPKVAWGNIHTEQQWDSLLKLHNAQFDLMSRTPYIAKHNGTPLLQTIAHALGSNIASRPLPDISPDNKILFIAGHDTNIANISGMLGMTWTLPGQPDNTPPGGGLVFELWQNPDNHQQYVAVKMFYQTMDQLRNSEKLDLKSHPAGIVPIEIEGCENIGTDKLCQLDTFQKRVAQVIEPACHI
# [2] = molecular target: Natuphos (Natuphos 10000L, BASF), commercial phytase
substance,measurement,setting,value
"pepsin (Sigma P-7000, 445 U/mg) (from UniProt P00791) (enzyme)","Stability to pepsin (residual phytase activity after 30 min at 37 C with 10 mg/ml pepsin, pH 2, relative to a pH 5.5 reference)",[1],1%
same,"Stability to pepsin (residual phytase activity after 30 min at 37 C with 10 mg/ml pepsin, pH 2, relative to a pH 5.5 reference)",[2],20%
